# Measured values taken from patent US6288042.
# Biological target: HIV-1 integrase wild-type (IN1-288) (Human immunodeficiency virus 1) (UniProt P04585)
# Assay: inhibition
# Conditions: I = deoxyinosine; PS at first and last linkage; 3'-processing column as printed; strand transfer column 0.070
sequence,measurement,value
IGGIIGGIIGGIIGGI [T30721],IC50,88 nM
